± gives the uncertainty stated by the source.
Assay: protein stability index of a GFP-peptide fusion (yeast GPS) (PSI 1-4); higher = more stable; sorted into four equal gates, so the index is relative within each strain
How it was run: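 For each peptide, the protein stability index sums the read frequency in every gate after multiplying it by the gate number. Read frequencies came from plasmids that were PCR-amplified from each gate and Illumina-sequenced, with reads assigned to strains by barcodes. The gates were four equal bins of GFP/Cherry fluorescence ratio applied to mid-log yeast in leucine-free medium carrying a pooled library of tiled 17-residue yeast protein peptides fused downstream of GFP on a Cherry-expressing plasmid.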

Sequence | protein stability index (pdr5∆) | protein stability index (doa10∆) | protein stability index (san1∆) | protein stability index (ubr1∆)
GKQVFSLLIKPNHNSPV [RPO31] | 3.33 ± 0.28 |  |  | 
AELDLMSGILHCEDKDY [RPN6] | 3.08 ± 0.047 | 2.9 ± 0.052 | 3 ± 0.046 | 3.13 ± 0.038
LKEVPTYRYVSVSVLVD [RPS25A] | 2.13 ± 0.069 | 2.64 ± 0.079 | 1.33 ± 0.1 | 1.66 ± 0.038
MESEEVPLTKRYQHLEK [PCI8] | 3.07 ± 0.067 | 2.85 ± 0.075 | 2.92 ± 0.048 | 3.14 ± 0.065
RSEDPAGLGKTNELWAR [YGR119C/NUP57] | 2.24 ± 0.077 | 2.82 ± 0.068 | 3.25 ± 0.075 | 3.4 ± 0.088
KEYQCSAVIIDEFKDIT [YIL149C/MLP2] | 2.75 ± 0.065 | 2.46 ± 0.065 | 2.35 ± 0.055 | 2.88 ± 0.044
GNIVAELAQDPQTMEHY [YCS4] | 3.4 ± 0.17 | 2.9 ± 0.1 | 3.44 ± 0.16 | 2.07 ± 0.11
ILNSHFDALRSLDDNST [YJL041W/NSP1] | 2.07 ± 0.046 | 2.36 ± 0.054 | 2.53 ± 0.064 | 2.55 ± 0.036
AFDKHMNLVLNECIEER [SMB1] | 2.34 ± 0.19 | 2.06 ± 0.14 | 2.68 ± 0.16 | 2.56 ± 0.051
HTEDEQIEKKKICRGRM [SIR4] | 3.38 ± 0.12 | 3.52 ± 0.17 | 3.48 ± 0.13 | 3.16 ± 0.083
KQLEKRDYQRINKNSKI [POP4] | 2.4 ± 0.068 | 2.06 ± 0.067 | 2.02 ± 0.11 | 2.69 ± 0.11
IRKGPAPLNLEIPAYEF [RIP1] | 2.58 ± 0.083 | 2.76 ± 0.062 | 2.67 ± 0.06 | 2.73 ± 0.062
LESLKPIDDTMTLLTDS [MTW1] | 2.95 ± 0.054 | 3 ± 0.092 | 3.04 ± 0.058 | 2.98 ± 0.046
EGEPVNSPNYFVAKLAA [COR1] | 3.16 ± 0.14 | 3.31 ± 0.16 | 3.37 ± 0.13 | 3.14 ± 0.17
RNVLSASLDGTIRLWEC [RPN14] | 3.09 ± 0.073 | 2.95 ± 0.068 | 3.14 ± 0.042 | 2.82 ± 0.043
NRERFISKLFLRGDSVI [SMD2] | 1.65 ± 0.089 | 2.91 ± 0.076 | 1.51 ± 0.14 | 3.03 ± 0.15
TVQSWLCDLFVNGSITD [NUT1] | 1.45 ± 0.048 | 1.46 ± 0.038 | 1.48 ± 0.086 | 1.23 ± 0.043
LTLYLFQDYLTQQAVNL [IRR1] | 1.91 ± 0.067 | 2.15 ± 0.095 | 2.06 ± 0.15 | 2.17 ± 0.099
YRFFKKISEDPVKALNE [SNF12] | 3.68 ± 0.2 | 3.5 ± 0.19 | 2.8 ± 0.23 | 3.52 ± 0.086
PVLDNPFTNEAHMWPRV [POP3] | 2.94 ± 0.1 | 3.26 ± 0.12 | 2.99 ± 0.11 | 3.27 ± 0.06
NPLAKTMADAVRELGIL [SEC65] | 2.3 ± 0.06 | 2.78 ± 0.058 | 2.42 ± 0.075 | 1.84 ± 0.053
VLISKLSCEKITHYAVR [RRI1] | 1.64 ± 0.051 | 1.45 ± 0.046 | 1.66 ± 0.07 | 1.67 ± 0.039
SQTNNSFLSGVKSLLSE [SIR4] | 3.26 ± 0.067 | 2.98 ± 0.069 | 3.14 ± 0.046 | 3.1 ± 0.056
EYKKHFPPNLEKGENPS [UBP6] | 2.76 ± 0.055 | 2.9 ± 0.097 | 2.42 ± 0.073 | 1.93 ± 0.053
QESSSLRLLEVTDDDRL [POP8] | 2.08 ± 0.078 | 2.1 ± 0.068 | 2.5 ± 0.12 | 1.65 ± 0.068
QALDISKKGKPTVNKKP [SRP72] | 2.82 ± 0.1 | 2.59 ± 0.16 | 2.36 ± 0.16 | 2.3 ± 0.14

Sequence | protein stability index (pdr5∆) | protein stability index (doa10∆) | protein stability index (san1∆) | protein stability index (ubr1∆)
DAGKIDKHLYHVLYKES [RPL19A] | 3.12 ± 0.2 | 3.25 ± 0.24 | 2.7 ± 0.091 | 2.89 ± 0.083
EENSQGNILDFNLNLPP [REC8] | 3.5 ± 0.14 | 3.06 ± 0.11 | 3.18 ± 0.051 | 3.01 ± 0.079
LVKALEDIMVHYDNTTR [RPO21] | 1.91 ± 0.062 | 1.46 ± 0.061 | 1.32 ± 0.086 | 1.68 ± 0.072
ELISFKERTKSLEHELK [YIL149C/MLP2] | 2.64 ± 0.064 | 2.24 ± 0.062 | 2.78 ± 0.073 | 2.78 ± 0.083
KTSNIESVPIYSIDEFF [BRR2] | 2.58 ± 0.067 | 2.56 ± 0.062 | 2.34 ± 0.045 | 2.13 ± 0.083
QLETLTGSIRHRLKLCK [CSE2] | 3.05 ± 0.17 | 3.32 ± 0.26 |  | 2.97 ± 0.21
NTYKRLVIGIFKRDLLR [YJL039C/NUP192] | 1.58 ± 0.083 | 2.5 ± 0.082 | 1.31 ± 0.13 | 1.59 ± 0.055
PINLPPQIAQLPLATQQ [SNF5] | 2.49 ± 0.059 | 2.15 ± 0.071 | 2.46 ± 0.089 | 2.27 ± 0.053
VLPNTALKTSIQHVGMI [FAS1] | 2.6 ± 0.16 | 2.95 ± 0.12 | 1.93 ± 0.14 | 2.4 ± 0.24
ELLSMGNAKESKALLRE [SRP72] | 2.81 ± 0.21 | 2.98 ± 0.12 | 2.91 ± 0.19 | 3.13 ± 0.16
EYLTLNDFNDLNIDWST [MED2] | 2.92 ± 0.062 | 2.83 ± 0.06 | 2.6 ± 0.053 | 2.51 ± 0.043
VDSRNETDHKTNENGET [SRB4] | 2.75 ± 0.18 | 3.26 ± 0.16 | 2.77 ± 0.098 | 3.27 ± 0.19
ILRDYGPQEAANAMNRM [RPO31] | 1.83 ± 0.26 |  | 2.86 ± 0.22 | 
DRKDQDDRDHFGKKRLD [RPB2] | 3.04 ± 0.12 | 3.27 ± 0.14 | 3.28 ± 0.13 | 3.39 ± 0.086
ESESERKYDLFQNLELE [SMC2] | 3.33 ± 0.077 | 3.37 ± 0.074 | 3.35 ± 0.068 | 3.3 ± 0.072
FRALGIIPDGEILEHIC [RPB2] | 2.55 ± 0.12 | 2.43 ± 0.057 | 2.46 ± 0.089 | 2.79 ± 0.047
VDPFDSDEEESVLDEQE [SNU114] | 3.5 ± 0.12 | 3.36 ± 0.095 | 3.39 ± 0.15 | 3.36 ± 0.073
SQRPGARILARSERKRT [ITC1] | 2.79 ± 0.17 | 3.14 ± 0.18 | 3.07 ± 0.21 | 2.98 ± 0.2
KSLDKKIAKRRQVYKPV [POP3] | 3.09 ± 0.15 | 3.25 ± 0.21 | 2.54 ± 0.23 | 3.5 ± 0.2
EVLTYVNYLISNTMYSV [YJL039C/NUP192] | 2.35 ± 0.054 | 2.45 ± 0.056 | 2.45 ± 0.044 | 2.5 ± 0.042
ALTDFERFQVMVLRKQK [RPL14A] | 1.97 ± 0.11 | 1.96 ± 0.11 | 1.62 ± 0.12 | 2.16 ± 0.065
CYAPRPSAGPHKLRESL [RPS4A] | 3.12 ± 0.091 | 2.78 ± 0.083 | 2.87 ± 0.11 | 3.07 ± 0.072
DASTPLRSTENGIVDQV [RPB2] | 3.33 ± 0.1 | 2.94 ± 0.12 | 3.34 ± 0.06 | 3.47 ± 0.092
ASYLTPLLEAKKLVWPL [SSN2] | 2.04 ± 0.066 | 2.13 ± 0.14 | 2.86 ± 0.15 | 2.71 ± 0.084
NANIFSSVKCFGPIKVE [FAS1] | 1.63 ± 0.046 | 2.04 ± 0.068 | 2.17 ± 0.067 | 1.51 ± 0.058
QSSGKLKEYLDLVARTA [YDL116W/NUP84] | 2.88 ± 0.16 | 2.63 ± 0.23 | 3.01 ± 0.099 | 2.74 ± 0.15

Source: the supplement of paper PMC9732359
